US20230398218A1 (published 2023)
Like-named read-outs stand apart in the source and are kept apart here.

Assays:
HLA-A01.01 [1] = target: T1, HLA-A01.01 (human); assay: pMHC-I complex dissociation at 37 C, radiolabeled b2m
T1 construct: in the stability assay the heavy chain is biotinylated and b2m iodine-labeled

HLA-A03.01 [2] = target: HLA-A03.01 (human); assay: as above
HLA-A01.01 [3] = target: T1, HLA-A01.01; assay: competition with radiolabeled reference peptide on prepared MHC class I
HLA-A03.01 [4] = target: HLA-A03.01 (human); assay: as above
HLA-A11.01 = HLA-A11.01 (human); assay: as above
[5] = target: T2, HLA-A*03:01 expressed in 293T or SW620 cells (human); assay: targeted MS/MS (PRM) of peptides eluted from HLA-peptide complexes, 293T cells
T2 construct: whole, on cells; HLA of cells from which peptides were eluted for MS/MS
Protocol: To assess whether antigens could be processed and presented from the larger polypeptide context, peptides eluted from HLA molecules isolated from cells expressing the genes of interest were analyzed by tandem mass spectrometry (MS/MS).
For analysis of presentation of RAS neoantigens, cell lines were utilized that have RAS mutations naturally or were lentivirally transduced to express the mutated RAS gene. HLA molecules were either isolated based on the natural expression of the cell lines or the cell lines were lentivirally transduced or transiently transfected to express the HLA of interest. […] Eluted peptides were then analyzed by targeted MS/MS with parallel reaction monitoring (PRM).

HLA-A02.01 [6] = target: HLA-A02.01 (human); assay: pMHC-I complex dissociation at 37 C, radiolabeled b2m
HLA-A02.01 [7] = target: HLA-A02.01 (human); assay: competition with radiolabeled reference peptide on prepared MHC class I
HLA-B08.01 [8] = target: HLA-B08.01 (human); assay: pMHC-I complex dissociation at 37 C, radiolabeled b2m
HLA-B08.01 [9] = target: HLA-B08.01 (human); assay: competition with radiolabeled reference peptide on prepared MHC class I
HLA-B08.01 [10] = target: HLA-B08.01 (human); assay: pMHC-I complex dissociation at 37 C, radiolabeled b2m; remark: listed apart in the source
HLA-A24.02 [11] = target: HLA-A24.02 (human); assay: as above
HLA-A24.02 [12] = target: HLA-A24.02 (human); assay: competition with radiolabeled reference peptide on prepared MHC class I

YMANGSLLNY (also called BTK, C481S peptide)
Stability (half-life (hr.)) (HLA-A01.01 [1]): 52 min
Stability (half-life (hr.)) (HLA-A03.01 [2]): 16.7 min
Affinity (HLA-A01.01 [3]): 13.2 nM
Affinity (HLA-A03.01 [4]): 95.9 nM
Affinity (HLA-A11.01): 974 nM

B1: VVVGAVGVGK (peptide)
peptide: VVVGAVGVGK
notes: Endogenously processed RAS G12V peptide eluted from HLA-peptide complexes
binding result [5]: binds

LIMQLMPFGC
Stability (half-life (hr.)) (HLA-A02.01 [6]): 22.9 min
Affinity (HLA-A02.01 [7]): 132 nM

SLLNYLREM
Stability (half-life (hr.)) (HLA-B08.01 [8]): 0 h
Affinity (HLA-B08.01 [9]): 960 nM

VQLIMQLMPF (also called VOLIMQLMPF)
Stability (half-life (hr.)) (HLA-B08.01 [10]): 0 h

QLIMQLMPF
Stability (half-life (hr.)) (HLA-B08.01 [10]): 0 h

MANGSLLNYL
Stability (half-life (hr.)) (HLA-B08.01 [8]): 0 h

IMQLMPFGCL
Stability (half-life (hr.)) (HLA-B08.01 [10]): 0 h

MQLMPFGCL
Stability (half-life (hr.)) (HLA-B08.01 [10]): 0 h

EYMANGSLL (also called BTK, C481S peptide)
Stability (half-life (hr.)) (HLA-A24.02 [11]): 343 min
Affinity (HLA-A24.02 [12]): 4.96 nM

MANGSLLNY (also called BTK, C481S peptide)
Stability (half-life (hr.)) (HLA-A01.01 [1]): 13 min
Stability (half-life (hr.)) (HLA-A03.01 [2]): 14.3 min
Affinity (HLA-A01.01 [3]): 439 nM
Affinity (HLA-A03.01 [4]): 35.6 nM
Affinity (HLA-A11.01): 536 nM

MQLMPFGCLL
Stability (half-life (hr.)) (HLA-B08.01 [10]): 0 h
